Reference: patent publication US20200360469A1 (published 2020)

Biological target: full-length (FL) BRAF^WT, 6x-HIS-BRAF-WT/FLAG (human, UniProt P15056 2-766)
Experiment: kinase activity inhibition (ELISA); with 0.1 nM Dabrafenib

full-length (FL) BRAF^WT, 6x-HIS-BRAF-WT/FLAG, sequence (P15056 2-766): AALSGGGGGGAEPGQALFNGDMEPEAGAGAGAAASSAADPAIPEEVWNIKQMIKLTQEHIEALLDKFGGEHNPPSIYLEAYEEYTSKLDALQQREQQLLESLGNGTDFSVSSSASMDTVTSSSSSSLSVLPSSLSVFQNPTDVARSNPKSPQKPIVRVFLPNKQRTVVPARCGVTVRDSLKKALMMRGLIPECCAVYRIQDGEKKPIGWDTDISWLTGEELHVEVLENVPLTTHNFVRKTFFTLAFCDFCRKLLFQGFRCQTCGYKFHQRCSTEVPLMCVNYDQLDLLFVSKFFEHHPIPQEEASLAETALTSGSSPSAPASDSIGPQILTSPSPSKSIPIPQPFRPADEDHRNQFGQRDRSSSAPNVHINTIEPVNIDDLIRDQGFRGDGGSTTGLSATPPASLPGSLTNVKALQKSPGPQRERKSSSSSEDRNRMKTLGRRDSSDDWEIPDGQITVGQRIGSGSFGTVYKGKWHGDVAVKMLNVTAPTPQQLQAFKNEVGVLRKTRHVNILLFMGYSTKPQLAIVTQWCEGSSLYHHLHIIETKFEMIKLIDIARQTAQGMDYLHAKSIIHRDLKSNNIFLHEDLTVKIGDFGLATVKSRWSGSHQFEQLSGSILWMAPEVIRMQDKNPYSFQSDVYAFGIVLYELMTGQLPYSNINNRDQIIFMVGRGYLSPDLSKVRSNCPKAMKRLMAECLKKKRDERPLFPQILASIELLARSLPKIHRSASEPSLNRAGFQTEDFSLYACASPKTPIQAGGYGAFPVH

## TRHVNILLFM [braftide]
  IC50: 280 nM
